Laboratory results: article PMC10582422, “Alzheimer's Progenitor Amyloid‐β Targets and Dissolves Microbial Amyloids and Impairs Biofilm Function” (Advanced Science, 2023)

Assays:
FapC fibrils [1] = assay: ThT assay: disintegration of preformed FapC fibrils; type: biochemical, P. aeruginosa; conditions: 1.8 – 15 µM against 50 µM FapC; ThT 72 h
Experimental: FapC and CsgA fibrils were pre‐incubated with 50 µM of Thioflavin T dye for 3 h. […] The instrument was set to agitate the plate for 5 s before every reading. […]

FapC fibrils [2] = assay: TEM of FapC fibrils incubated with peptide; type: biochemical, P. aeruginosa; conditions: TEM at 1, 2 and 3 weeks
From the text: The samples were blotted with filter paper and grids were blotted twice with deionized water and then a drop of 1% uranyl acetate was placed on the grids for 30 s for negative staining. […] […] TEM grids were imaged with a Hitachi HT7700 TEM operating at 120 kV.

CsgA fibrils [3] = target: T1, CsgA fibrils (Escherichia coli, UniProt P28307); type: biochemical, E. coli
T1 construct: made in house; host or cells: E. coli
Experimental: (§1) The percentage secondary structure was calculated by the CD data via Dichroweb analysis with parameters of Contin/reference set 4.

CsgA fibrils [4] = target: T1, CsgA fibrils; type: biochemical, E. coli; conditions: DLS, incubated without Aβ, as for TEM; n = 3
Experimental: (§2) Quartz cells with low volume capacity (100 µL) were used and measurements were performed using a Malvern Zetasizer Nano Series running DTS software and using a 4 mW He−Ne laser operating at a wavelength of 633 nm and equipped with an avalanche photodiode (APD) detector. The scattered light was detected at an angle of 173°.

Caco‐2 cells = assay: Cell adhesion of FapC and CsgA amyloids to Caco-2 cells; type: cell-based; conditions: Alexa647-labelled, 10 µM, 24 h
Experimental: In comparison, FapC or CsgA amyloids alone (10 µM), labelled with Alexa647, were incubated with the cells under the same conditions. […] The cells were incubated for additional 24 h. All the cells in this experiment were fixed in 4% PFA, washed with PBS and then subjected to confocal imaging as described above. The size and number of the FapC or CsgA amyloids attached to the membrane of Caco‐2 cells were quantified from the images using Fiji ImageJ software.

Zeta potential = type: physicochemical; conditions: Malvern Zetasizer Nano; fibrils
Aβ = conditions: cited from earlier work
From the text: Amyloid‐β (Aβ) is a peptide generated from the proteolytic cleavage of amyloid precursor protein (APP) expressed on the membrane and synapses of neurons. Based on the combination of enzymes that cleave APP, i.e., α‐, β‐ or γ‐secretase, the resulting Aβ can be a 40 (Aβ40) or 42 (Aβ42) residue peptide that is intrinsically disordered in structure.^[ [1] ^] Different environmental factors, familial mutations or localized concentrations of Aβ can trigger the aggregation of Aβ into oligomers. The oligomers can subsequently assemble into long twisted fibrils characterized by a so‐called amyloid fold ...

P. aeruginosa PAO1 = assay: Antimicrobial sensitivity assay (MBEC peg biofilm), PAO1; type: cell-based; conditions: combined with Pen
Experimental: (§3) Microbial culture of K12 and PAO1 were added to 96‐well plates at OD 0.3 and incubated overnight at the static condition at 37 °C with Minimum Biofilm Eradication Concentration (MBEC) peg lids (Innovotech, Edmonton, Canada) where biofilms were formed on the pegs. […] After overnight incubation in the challenge plate, peg lids were removed, and swabs of the culture were picked from the pegs and streaked onto LB agar plates. The plates were incubated overnight at 37 °C and surviving colonies were confirmed by visual inspection and counted with the software Promega Colony Counter.

E. coli K‐12 = assay: Antimicrobial sensitivity assay (MBEC peg biofilm), K-12; type: cell-based; conditions: combined with Pen
Experimental: as §3

FapC fibrils [5] = assay: CD spectroscopy of FapC fibrils; type: biochemical, P. aeruginosa
Experimental: as §1

FapC fibrils [6] = assay: DLS size of FapC fibrils; type: biochemical, P. aeruginosa; conditions: incubated without Aβ, as for TEM, n = 3
Experimental: as §2

FapC monomers = assay: Self-seeding / fibrillization of FapC monomers (ThT, TEM); type: biochemical, P. aeruginosa; conditions: FapC monomers 15 µM
[7] = CD, Dichroweb Contin/reference set 4, 50 µM

T1 sequence (P28307 21-151): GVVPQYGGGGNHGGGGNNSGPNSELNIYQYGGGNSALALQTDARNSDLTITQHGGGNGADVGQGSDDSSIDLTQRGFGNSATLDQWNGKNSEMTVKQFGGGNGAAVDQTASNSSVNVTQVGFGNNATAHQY

For “IAPP: human islet amyloid polypeptide (KCNTATCATQRLANFLVHSSNNFGAILSSTNVGSNTY; Islet amyloid polypeptide; UniProt P10997 34-70, looked up)”, the “disintegration of FapC amyloids by IAPP or aSyn” value (FapC fibrils [1]) was “did not show any disintegration of FapC amyloids” and the “TEM remodeling of FapC fibrils by IAPP or aSyn monomers” value (FapC fibrils [2]) was “no remodeling effect was observed for FapC fibrils”.

In the case of “CsgA: CsgA prepared recombinantly in E. coli; major subunit of the curli protein”, the “CD negative peak, CsgA fibrils alone” value (CsgA fibrils [3]; 50 µM CsgA without Aβ, 48 h) is reported as 214 nm, the “β‐sheet content of CsgA fibrils, without Aβ” value (CsgA fibrils [3]; [7]) is reported as 42% and the “hydrodynamic radius of CsgA fibrils, without Aβ” value (CsgA fibrils [4]) is reported as “≈ 1500 nm”. For the same molecule, the “size of amyloid aggregates attached to Caco-2 membrane, without Aβ” value (Caco‐2 cells) was “≈ 30 µm” and the zeta potential (Zeta potential) was 37 mV.

In the case of “Solanezumab: monoclonal antibody in clinical trials”, the “efficacy in phase 3 trials” value (Aβ; mild form of Alzheimer's disease, ref [6], [7]) is listed as “some efficacy but not much promise in phase 3 trials”.

With `[H]/N=C(/N)N[C@H]1[C@H](O)[C@@H](O)[C@H](O[C@@H]2O[C@@H](C)[C@](O)(C=O)[C@H]2O[C@@H]2O[C@@H](CO)[C@H](O)[C@@H](O)[C@@H]2NC)[C@@H](N/C(N)=N\[H])[C@@H]1O` [Strep] the “minimum concentration with slight antimicrobial effect (Strep), PAO1” value (P. aeruginosa PAO1) was 5e-06 µg/mL and the “minimum concentration with slight antimicrobial effect (Strep), K-12” value (E. coli K‐12) was 5e-06 µg/mL.

B1: FapC: FapC prepared recombinantly in E. coli; amyloid protein secreted by P. aeruginosa (protein, UniProt Q9I2F0 25-340, looked up)
Functional amyloid subunit …: GNEGGWHPPKPNPQSNNKGGATALVVDTQQNYNNKVSNFGTLNNASVSGSIKDASGNVGVNVAAGDNNQQANAAALASADASFVFGTATASTSVLQSGYGNTLNNYSNPNTASLSNSANNVSGNLGVNVAAGNFNQQKNDLAAAVSNGQYSTAGSAASQTSTGNTTVNSANYAYGGTYVSLKLNADGSYKGTSDQIGDVYLDTWEGQTHPGGSNTGHIDVDSQAQGAKDLNHDGGAFAFKEKGDVDLKGTVSGFIPAIVGFKTPVTNNASLSNSLQNVSGNVGVNIAAGGGNQQSNSLSIAAGCSSCPAGGESLGF
For B1, the “CD negative peak, FapC fibrils alone” value (FapC fibrils [5]; 50 µM FapC without Aβ, 48 h) was 214 nm, the “random coil content of FapC fibrils, without Aβ” value (FapC fibrils [5]; [7]) was 22% and the “β‐sheet content of FapC fibrils, without Aβ” value (FapC fibrils [5]; [7]) was 47%. For the same molecule, the “hydrodynamic radius of FapC fibrils, without Aβ” value (FapC fibrils [6]) was “≈ 550 nm”, the “size of amyloid aggregates attached to Caco-2 membrane, without Aβ” value (Caco‐2 cells) was “≈ 30 µm” and the zeta potential (Zeta potential) was 47 mV.

B2: sonicated FapC: Sonicated FapC seeds used as control (protein, UniProt Q9I2F0 25-340, looked up)
Functional amyloid subunit …: B1 Functional amyloid subunit …
modifications: sonicated fibril seeds
notes: Sonicated FapC seeds used as control
For B2, the “self-seeding of FapC monomers by sonicated seeds” value (FapC monomers) was “a significant increase in ThT kinetics was observed”.

B3: Lecanemab: humanized IgG1 monoclonal antibody that binds with soluble protofibrils of Aβ (antibody, chains of the INN, looked up, V domains shown)
VH: EVQLVESGGGLVQPGGSLRLSCSASGFTFSSFGMHWVRQAPGKGLEWVAYISSGSSTIYYGDTVKGRFTISRDNAKNSLFLQMSSLRAEDTAVYYCAREGGYYYGRSYYTMDYWGQGTTVTVSS
VL: DVVMTQSPLSLPVTPGAPASISCRSSQSIVHSNGNTYLEWYLQKPGQSPKLLIYKVSNRFSGVPDRFSGSGSGTDFTLRISRVEAEDVGIYYCFQGSHVPPTFGPGTKLEIK
For B3, the “efficacy in phase 2 clinical trials” value (Aβ; early onset Alzheimer's disease, ref [8]) is listed as “limited improvement in cognition and reduced Aβ burden”.
